Drawing on the RNAGym collection of RNA variant scans (doi:10.1093/molbev/msab373), this text covers reverse-splicing fitness for 83 variants.

The chains are these.
B1: Azoarcus group I ribozyme (parent)
chain: GUGCCUUGCGCCGGGAAACCACGCAAGGGAUGGUGUCAAAUUCGGCGAAACCUAAGCGCCCGCCCGGGCGUAUGGCAACGCCGAGCCAAGCUUCGGCGCCUGCGCCGAUGAAGGUGUAGAGACUAGACGGCACCCACCUAAGGCAAACGCUAUGGUGAAGGCAUAGUCCAGGGAGUGGCGAAAGUCACACAAACCGG

Variants of B1 are the subject of the series. Kind of series: reverse-splicing fitness (ratio to wild type); higher = more active; in vitro selection; Mg2+ level not given. An outline of the steps: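 An in vitro group I ribozyme library with randomized positions was T7-transcribed and gel-purified. In triplicate, 10 pmol RNA in EPPS pH 7.5 was reacted with 50 pmoles of a 30-nt RNA substrate for 1 h at 37 °C across several added MgCl2 levels (1–48 mM), then stopped with EDTA. Products were reverse transcribed from a substrate-complementary primer, PCR-amplified and sequenced (HiSeq 4000). Fitness is a variant's read proportion after selection over that before, normalised to wild type.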
In the case of C82A A111U A145C C169A, the reverse-splicing fitness worked out at 0.00733.

C82A A111U A145C C169G: the reverse-splicing fitness came to 0.00993.

As to C82A A111U A145C C169U, the reverse-splicing fitness was 0.0123.

As to C82A A111U A120U C150A C169A U176C, the reverse-splicing fitness is 0.00509.

As for C82A A111U A120U C150A C169A U176G, the reverse-splicing fitness came out at 0.00306.

As to C82A A111U A120U C150A C169A U176A, the reverse-splicing fitness amounted to 0.00679.

With C82A A111U A120U C150U C169G U176C, the reverse-splicing fitness came out at 0.00496.

As to C82A A111U A120U C150U C169G U176A, the reverse-splicing fitness came out at 0.00965.

With C82A A111U A120U C150U C169G U176G, the reverse-splicing fitness turned out to be 0.00271.

C82A A111U A120U C150U C169A U176A: the reverse-splicing fitness came out at 0.00575.

Regarding C82A A111U A120U C150U C169A U176C, the reverse-splicing fitness stood at 0.00344.

With C82A A111U A120U C150U C169A U176G, the reverse-splicing fitness amounted to 0.00226.

As to C82A A111U A120U A145G C169G U176C, the reverse-splicing fitness was found to be 0.00486.

C82A A111U A120U A145G C169G U176A: the reverse-splicing fitness worked out at 0.00391.

On to C82A A111U A120U A145G C169G U176G, for which the reverse-splicing fitness came to 0.00182.

Take C82A A111U A120U C150G C169G: the reverse-splicing fitness stood at 0.00683.

As for C82A A111U A120U C150G C169A, the reverse-splicing fitness turned out to be 0.00872.

As to C82A A111U A120U C150G C169U, the reverse-splicing fitness turned out to be 0.00659.

Turning to C82A A111U A120U A145U C169A, the reverse-splicing fitness worked out at 0.00249.

Regarding C82A A111U A120U A145U C169G, the reverse-splicing fitness was determined as 0.00304.

In the case of C82A A111U A120U A145U C169U, the reverse-splicing fitness was found to be 0.0039.

With C82A A111U A145G C169U U176G, the reverse-splicing fitness amounted to 0.00628.

Turning to C82A A111U A145G C169U U176C, the reverse-splicing fitness came out at 0.0157.

For the variant C82A A111U A145G C169U U176A, the reverse-splicing fitness was determined as 0.0154.

For the variant C82A A111U A145C C150U C169A U176A, the reverse-splicing fitness came out at 0.0133.

Take C82A A111U A145C C150U C169A U176G: the reverse-splicing fitness was 0.00747.

As to C82A A111U A145C C150U C169A U176C, the reverse-splicing fitness stood at 0.00736.

As to C82A A111U A145U C150U C169G U176G, the reverse-splicing fitness worked out at 0.00663.

C82A A111U A145U C150U C169G U176C: the reverse-splicing fitness is 0.0156.

Regarding C82A A111U A145U C150U C169G U176A, the reverse-splicing fitness amounted to 0.0142.

On to C82A A111U A145C C150A C169U U176A, for which the reverse-splicing fitness was 0.0155.

Regarding C82A A111U A145C C150A C169U U176C, the reverse-splicing fitness came out at 0.0116.

On to C82A A111U A145C C150A C169U U176G, for which the reverse-splicing fitness was 0.00705.

With C82A A111U A120U C150G U176C, the reverse-splicing fitness is 0.00606.

In the case of C82A A111U A120U C150G U176A, the reverse-splicing fitness is 0.00499.

Regarding C82A A111U A120U C150G U176G, the reverse-splicing fitness amounted to 0.00265.

In the case of C82A A111U A145C C150G U176A, the reverse-splicing fitness was found to be 0.0104.

Turning to C82A A111U A145C C150G U176C, the reverse-splicing fitness turned out to be 0.0163.

Regarding C82A A111U A145C C150G U176G, the reverse-splicing fitness came out at 0.00428.

For the variant C82A A111U A120U U176G, the reverse-splicing fitness is 0.00275.

For C82A A111U A120U U176A, the reverse-splicing fitness stood at 0.00842.

In the case of C82A A111U A120U U176C, the reverse-splicing fitness worked out at 0.0105.

As to C82A A111U A120U C150A C169U U176G, the reverse-splicing fitness is 0.00224.

C82A A111U A120U C150A C169U U176C: the reverse-splicing fitness was 0.00489.

In the case of C82A A111U A120U C150A C169U U176A, the reverse-splicing fitness is 0.00587.

For the variant C82A A111U A145U C150A C169U U176G, the reverse-splicing fitness was found to be 0.00771.

As for C82A A111U A145U C150A C169U U176A, the reverse-splicing fitness was 0.0147.

Consider C82A A111U A145U C150A C169U U176C, for which the reverse-splicing fitness worked out at 0.0127.

In the case of C82A A111U A145G U176G, the reverse-splicing fitness is 0.0224.

In the case of C82A A111U A145G U176C, the reverse-splicing fitness amounted to 0.151.

For C82A A111U A145G U176A, the reverse-splicing fitness was determined as 0.0978.

C82A A111U A145C C150G C169A: the reverse-splicing fitness was 0.00825.

As for C82A A111U A145C C150G C169G, the reverse-splicing fitness was found to be 0.00746.

Regarding C82A A111U A145C C150G C169U, the reverse-splicing fitness was determined as 0.00999.

Take C82A A111U A145G C150A C169U: the reverse-splicing fitness was found to be 0.0111.

Regarding C82A A111U A145G C150A C169G, the reverse-splicing fitness is 0.00916.

Take C82A A111U A145G C150A C169A: the reverse-splicing fitness came to 0.0117.

In the case of C82A A111U A145C C150U U176G, the reverse-splicing fitness was 0.0107.

Take C82A A111U A145C C150U U176C: the reverse-splicing fitness was found to be 0.0396.

For C82A A111U A145C C150U U176A, the reverse-splicing fitness came to 0.0254.

As to C82A A111U A145G C150G C169A U176G, the reverse-splicing fitness stood at 0.0091.

As to C82A A111U A145G C150G C169A U176C, the reverse-splicing fitness worked out at 0.0137.

C82A A111U A145G C150G C169A U176A: the reverse-splicing fitness is 0.0138.

Take C82A A111U A145G C169A U176C: the reverse-splicing fitness was 0.0292.

As for C82A A111U A145G C169A U176A, the reverse-splicing fitness is 0.0221.

Consider C82A A111U A145G C169A U176G, for which the reverse-splicing fitness came out at 0.00574.

With C82A A111U A120U A145U U176G, the reverse-splicing fitness was 0.00335.

As for C82A A111U A120U A145U U176A, the reverse-splicing fitness was found to be 0.0073.

As to C82A A111U A120U A145U U176C, the reverse-splicing fitness was 0.0117.

Take C82A A111U A145U: the reverse-splicing fitness worked out at 0.289.

As for C82A A111U A145C, the reverse-splicing fitness was determined as 0.28.

C82A A111U A145G: the reverse-splicing fitness turned out to be 0.313.

Take C82A A111U A145C C150G C169A U176C: the reverse-splicing fitness is 0.0076.

As to C82A A111U A145C C150G C169A U176A, the reverse-splicing fitness was 0.0086.

Turning to C82A A111U A145C C150G C169A U176G, the reverse-splicing fitness worked out at 0.00755.

For C82A A111U A120U C169G, the reverse-splicing fitness amounted to 0.00434.

On to C82A A111U A120U C169A, for which the reverse-splicing fitness worked out at 0.00416.

Turning to C82A A111U A120U C169U, the reverse-splicing fitness came out at 0.00502.

Turning to C82A A111U A120U A145U C150A C169G U176C, the reverse-splicing fitness came out at 0.00291.

In the case of C82A A111U A120U A145U C150A C169G U176G, the reverse-splicing fitness was determined as 0.00203.

Turning to C82A A111U A120U A145U C150A C169G U176A, the reverse-splicing fitness came to 0.00333.

C82A A111U A145U C150G C169G U176G: the reverse-splicing fitness amounted to 0.00651.

On to C82A A111U A145U C150G C169G U176A, for which the reverse-splicing fitness was found to be 0.00742.
